From patent US20230125301A1 (published 2023)
Like-named read-outs stand apart in the source and are kept apart here.

Columns and labels:
Assay in all cases: FACS binding, CHO-K1 cells
[1] = target: T1, human PD-L1 (human, UniProt Q9NZQ7 19-290)
[2] = target: T1, human PD-L1; remark: listed apart in the source
[3] = target: T1, human PD-L1; remark: listed apart in the source

T1 sequence (Q9NZQ7 19-290): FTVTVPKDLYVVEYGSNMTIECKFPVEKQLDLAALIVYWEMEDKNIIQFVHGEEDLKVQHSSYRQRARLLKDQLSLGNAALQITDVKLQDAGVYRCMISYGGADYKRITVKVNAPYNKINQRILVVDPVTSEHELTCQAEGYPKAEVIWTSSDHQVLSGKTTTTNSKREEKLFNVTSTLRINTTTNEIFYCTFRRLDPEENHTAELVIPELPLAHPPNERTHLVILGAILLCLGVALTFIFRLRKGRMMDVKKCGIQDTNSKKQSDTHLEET

Binder | EC50 [1] [nM] | EC50 [2] [nM] | EC50 [3] [nM]
CLDN18L-E2-pdl1a (bispecific antibody) heavy: not shown light: DIVMTQSPLSLPVTPGEPASISCKSSQTLLNSGNQKNYLTWYLQKPGQSPQLLIYWASTGESGVPDRFSGSGSGTDFTLKISRVEAEDVGVYYCQNAYFYPFTFGGGTKVEIKRTVAAPSVFIFPPSDEQLKSGTASVVCLLNNFYPREAKVQWKVDNALQSGNSQESVTEQDSKDSTYSLSSTLTLSKADYEKHKVYACEVTHQGLSSPVTKSFNRGECERKSSVESPPSPEVQLVESGGGLVQPGGSLRLSCAASGRTFVTYGMGWFRQAPGKGREFVSAISWSGSMTSYGDSVKGRFTISRDNAKNTLYLQMNSLRPEDTAVYYCAAALGAVVYTTREPYTYWGQGTLVTVSS | 0.333 |  | 
CLDN18L-E2a-pdl1a (bispecific antibody) heavy: not shown light: DIVMTQSPLSLPVTPGEPASISCKSSQTLLNSGNQKNYLTWYLQKPGQSPQLLIYWASTGESGVPDRFSGSGSGTDFTLKISRVEAEDVGVYYCQNAYFYPFTFGGGTKVEIKRTVAAPSVFIFPPSDEQLKSGTASVVCLLNNFYPREAKVQWKVDNALQSGNSQESVTEQDSKDSTYSLSSTLTLSKADYEKHKVYACEVTHQGLSSPVTKSFNRGECERKSGVEGPPGPEVQLVESGGGLVQPGGSLRLSCAASGRTFVTYGMGWFRQAPGKGREFVSAISWSGSMTSYGDSVKGRFTISRDNAKNTLYLQMNSLRPEDTAVYYCAAALGAVVYTTREPYTYWGQGTLVTVSS | 0.439 |  | 
pdl1a-E-CLDN18L (bispecific antibody) heavy: not shown light: EVQLVESGGGLVQPGGSLRLSCAASGRTFVTYGMGWFRQAPGKGREFVSAISWSGSMTSYGDSVKGRFTISRDNAKNTLYLQMNSLRPEDTAVYYCAAALGAVVYTTREPYTYWGQGTLVTVSSEPKSSDKTHTSPPSPDIVMTQSPLSLPVTPGEPASISCKSSQTLLNSGNQKNYLTWYLQKPGQSPQLLIYWASTGESGVPDRFSGSGSGTDFTLKISRVEAEDVGVYYCQNAYFYPFTFGGGTKVEIKRTVAAPSVFIFPPSDEQLKSGTASVVCLLNNFYPREAKVQWKVDNALQSGNSQESVTEQDSKDSTYSLSSTLTLSKADYEKHKVYACEVTHQGLSSPVTKSFNRGEC |  | 0.107 | 0.131
CLDN18L-G15-pdl1a (bispecific antibody) heavy: not shown light: DIVMTQSPLSLPVTPGEPASISCKSSQTLLNSGNQKNYLTWYLQKPGQSPQLLIYWASTGESGVPDRFSGSGSGTDFTLKISRVEAEDVGVYYCQNAYFYPFTFGGGTKVEIKRTVAAPSVFIFPPSDEQLKSGTASVVCLLNNFYPREAKVQWKVDNALQSGNSQESVTEQDSKDSTYSLSSTLTLSKADYEKHKVYACEVTHQGLSSPVTKSFNRGECGGGGSGGGGSGGGGSEVQLVESGGGLVQPGGSLRLSCAASGRTFVTYGMGWFRQAPGKGREFVSAISWSGSMTSYGDSVKGRFTISRDNAKNTLYLQMNSLRPEDTAVYYCAAALGAVVYTTREPYTYWGQGTLVTVSS |  | 0.404 | 0.456
CLDN18H-E-pdl1b (bispecific antibody) heavy: not shown light: DIVMTQSPLSLPVTPGEPASISCKSSQTLLNSGNQKNYLTWYLQKPGQSPQLLIYWASTGESGVPDRFSGSGSGTDFTLKISRVEAEDVGVYYCQNAYFYPFTFGGGTKVEIKRTVAAPSVFIFPPSDEQLKSGTASVVCLLNNFYPREAKVQWKVDNALQSGNSQESVTEQDSKDSTYSLSSTLTLSKADYEKHKVYACEVTHQGLSSPVTKSFNRGEC |  |  | 0.296
CLDN18H-G9-pdl1a (bispecific antibody) heavy: not shown light: DIVMTQSPLSLPVTPGEPASISCKSSQTLLNSGNQKNYLTWYLQKPGQSPQLLIYWASTGESGVPDRFSGSGSGTDFTLKISRVEAEDVGVYYCQNAYFYPFTFGGGTKVEIKRTVAAPSVFIFPPSDEQLKSGTASVVCLLNNFYPREAKVQWKVDNALQSGNSQESVTEQDSKDSTYSLSSTLTLSKADYEKHKVYACEVTHQGLSSPVTKSFNRGEC |  | 0.111 | 
pdl1a-G15-CLDN18H (bispecific antibody) heavy: not shown light: DIVMTQSPLSLPVTPGEPASISCKSSQTLLNSGNQKNYLTWYLQKPGQSPQLLIYWASTGESGVPDRFSGSGSGTDFTLKISRVEAEDVGVYYCQNAYFYPFTFGGGTKVEIKRTVAAPSVFIFPPSDEQLKSGTASVVCLLNNFYPREAKVQWKVDNALQSGNSQESVTEQDSKDSTYSLSSTLTLSKADYEKHKVYACEVTHQGLSSPVTKSFNRGEC |  | 0.134 | 
CLDN18H-G12-pdl1a (bispecific antibody) heavy: not shown light: DIVMTQSPLSLPVTPGEPASISCKSSQTLLNSGNQKNYLTWYLQKPGQSPQLLIYWASTGESGVPDRFSGSGSGTDFTLKISRVEAEDVGVYYCQNAYFYPFTFGGGTKVEIKRTVAAPSVFIFPPSDEQLKSGTASVVCLLNNFYPREAKVQWKVDNALQSGNSQESVTEQDSKDSTYSLSSTLTLSKADYEKHKVYACEVTHQGLSSPVTKSFNRGEC |  | 0.281 | 
CLDN18H-G15-pdl1a (bispecific antibody) heavy: not shown light: DIVMTQSPLSLPVTPGEPASISCKSSQTLLNSGNQKNYLTWYLQKPGQSPQLLIYWASTGESGVPDRFSGSGSGTDFTLKISRVEAEDVGVYYCQNAYFYPFTFGGGTKVEIKRTVAAPSVFIFPPSDEQLKSGTASVVCLLNNFYPREAKVQWKVDNALQSGNSQESVTEQDSKDSTYSLSSTLTLSKADYEKHKVYACEVTHQGLSSPVTKSFNRGEC |  | 0.219 | 0.525
CLDN18H-E-pdl1c (bispecific antibody) heavy: not shown light: DIVMTQSPLSLPVTPGEPASISCKSSQTLLNSGNQKNYLTWYLQKPGQSPQLLIYWASTGESGVPDRFSGSGSGTDFTLKISRVEAEDVGVYYCQNAYFYPFTFGGGTKVEIKRTVAAPSVFIFPPSDEQLKSGTASVVCLLNNFYPREAKVQWKVDNALQSGNSQESVTEQDSKDSTYSLSSTLTLSKADYEKHKVYACEVTHQGLSSPVTKSFNRGEC |  |  | 0.317
pdl1a-G12-CLDN18H (bispecific antibody) heavy: not shown light: DIVMTQSPLSLPVTPGEPASISCKSSQTLLNSGNQKNYLTWYLQKPGQSPQLLIYWASTGESGVPDRFSGSGSGTDFTLKISRVEAEDVGVYYCQNAYFYPFTFGGGTKVEIKRTVAAPSVFIFPPSDEQLKSGTASVVCLLNNFYPREAKVQWKVDNALQSGNSQESVTEQDSKDSTYSLSSTLTLSKADYEKHKVYACEVTHQGLSSPVTKSFNRGEC |  | 0.0989 | 
CLDN18H-E-pdl1a (bispecific antibody) heavy: not shown light: DIVMTQSPLSLPVTPGEPASISCKSSQTLLNSGNQKNYLTWYLQKPGQSPQLLIYWASTGESGVPDRFSGSGSGTDFTLKISRVEAEDVGVYYCQNAYFYPFTFGGGTKVEIKRTVAAPSVFIFPPSDEQLKSGTASVVCLLNNFYPREAKVQWKVDNALQSGNSQESVTEQDSKDSTYSLSSTLTLSKADYEKHKVYACEVTHQGLSSPVTKSFNRGEC |  |  | 1.46
pdl1a-E-CLDN18H (bispecific antibody) heavy: not shown light: DIVMTQSPLSLPVTPGEPASISCKSSQTLLNSGNQKNYLTWYLQKPGQSPQLLIYWASTGESGVPDRFSGSGSGTDFTLKISRVEAEDVGVYYCQNAYFYPFTFGGGTKVEIKRTVAAPSVFIFPPSDEQLKSGTASVVCLLNNFYPREAKVQWKVDNALQSGNSQESVTEQDSKDSTYSLSSTLTLSKADYEKHKVYACEVTHQGLSSPVTKSFNRGEC |  | 0.143 | 0.0745
pdl1a-G12-CLDN18L (bispecific antibody) heavy: not shown light: EVQLVESGGGLVQPGGSLRLSCAASGRTFVTYGMGWFRQAPGKGREFVSAISWSGSMTSYGDSVKGRFTISRDNAKNTLYLQMNSLRPEDTAVYYCAAALGAVVYTTREPYTYWGQGTLVTVSSGGGGSGGGGSGSDIVMTQSPLSLPVTPGEPASISCKSSQTLLNSGNQKNYLTWYLQKPGQSPQLLIYWASTGESGVPDRFSGSGSGTDFTLKISRVEAEDVGVYYCQNAYFYPFTFGGGTKVEIKRTVAAPSVFIFPPSDEQLKSGTASVVCLLNNFYPREAKVQWKVDNALQSGNSQESVTEQDSKDSTYSLSSTLTLSKADYEKHKVYACEVTHQGLSSPVTKSFNRGEC |  | 0.0898 | 
pdl1a-G15-CLDN18L (bispecific antibody) heavy: not shown light: EVQLVESGGGLVQPGGSLRLSCAASGRTFVTYGMGWFRQAPGKGREFVSAISWSGSMTSYGDSVKGRFTISRDNAKNTLYLQMNSLRPEDTAVYYCAAALGAVVYTTREPYTYWGQGTLVTVSSGGGGSGGGGSGGGGSDIVMTQSPLSLPVTPGEPASISCKSSQTLLNSGNQKNYLTWYLQKPGQSPQLLIYWASTGESGVPDRFSGSGSGTDFTLKISRVEAEDVGVYYCQNAYFYPFTFGGGTKVEIKRTVAAPSVFIFPPSDEQLKSGTASVVCLLNNFYPREAKVQWKVDNALQSGNSQESVTEQDSKDSTYSLSSTLTLSKADYEKHKVYACEVTHQGLSSPVTKSFNRGEC |  | 0.147 | 
CLDN18L-Ea-pdl1a (bispecific antibody) heavy: not shown light: DIVMTQSPLSLPVTPGEPASISCKSSQTLLNSGNQKNYLTWYLQKPGQSPQLLIYWASTGESGVPDRFSGSGSGTDFTLKISRVEAEDVGVYYCQNAYFYPFTFGGGTKVEIKRTVAAPSVFIFPPSDEQLKSGTASVVCLLNNFYPREAKVQWKVDNALQSGNSQESVTEQDSKDSTYSLSSTLTLSKADYEKHKVYACEVTHQGLSSPVTKSFNRGECEPKSSDKGHGGPPGPEVQLVESGGGLVQPGGSLRLSCAASGRTFVTYGMGWFRQAPGKGREFVSAISWSGSMTSYGDSVKGRFTISRDNAKNTLYLQMNSLRPEDTAVYYCAAALGAVVYTTREPYTYWGQGTLVTVSS | 0.394 |  | 
CLDN18L-E-pdl1b (bispecific antibody) heavy: not shown light: DIVMTQSPLSLPVTPGEPASISCKSSQTLLNSGNQKNYLTWYLQKPGQSPQLLIYWASTGESGVPDRFSGSGSGTDFTLKISRVEAEDVGVYYCQNAYFYPFTFGGGTKVEIKRTVAAPSVFIFPPSDEQLKSGTASVVCLLNNFYPREAKVQWKVDNALQSGNSQESVTEQDSKDSTYSLSSTLTLSKADYEKHKVYACEVTHQGLSSPVTKSFNRGECEPKSSDKTHTSPPSPEVQLVESGGGLVQPGGSLRLSCAASGRTFVTYGMGWFRQAPGKGREFVSAISWSGSSTSYGDSVKGRFTISRDNAKNTLYLQMNSLRPEDTAVYYCAAALGAVVYTTREPYTYWGQGTLVTVSS |  |  | 0.516
CLDN18L-G12-pdl1a (bispecific antibody) heavy: not shown light: DIVMTQSPLSLPVTPGEPASISCKSSQTLLNSGNQKNYLTWYLQKPGQSPQLLIYWASTGESGVPDRFSGSGSGTDFTLKISRVEAEDVGVYYCQNAYFYPFTFGGGTKVEIKRTVAAPSVFIFPPSDEQLKSGTASVVCLLNNFYPREAKVQWKVDNALQSGNSQESVTEQDSKDSTYSLSSTLTLSKADYEKHKVYACEVTHQGLSSPVTKSFNRGECGGGGSGGGGSGSEVQLVESGGGLVQPGGSLRLSCAASGRTFVTYGMGWFRQAPGKGREFVSAISWSGSMTSYGDSVKGRFTISRDNAKNTLYLQMNSLRPEDTAVYYCAAALGAVVYTTREPYTYWGQGTLVTVSS |  | 0.808 | 
